How the values were obtained:
[1] = target: T1, GST-NST2 (Arabidopsis thaliana) (UniProt Q9M274); test: EMSA; details: 10 mM Tris pH 7.5, 50 mM KCl, 1 mM DTT, 2.5% glycerol, 5 mM MgCl2, 0.1% IGEPAL CA-630, 0.05 ug/ul calf thymus DNA, 150 ng protein, 30 min room temperature
T1 sequence: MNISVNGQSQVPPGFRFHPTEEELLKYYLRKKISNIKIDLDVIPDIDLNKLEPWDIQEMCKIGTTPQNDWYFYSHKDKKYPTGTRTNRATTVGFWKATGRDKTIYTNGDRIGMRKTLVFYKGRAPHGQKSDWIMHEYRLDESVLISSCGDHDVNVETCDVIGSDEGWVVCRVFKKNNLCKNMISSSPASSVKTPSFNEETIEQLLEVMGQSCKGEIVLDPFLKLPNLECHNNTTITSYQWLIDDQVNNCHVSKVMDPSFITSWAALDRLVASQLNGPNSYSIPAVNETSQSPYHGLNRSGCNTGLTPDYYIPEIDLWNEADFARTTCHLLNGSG

[2] = target: T2, GST-SND1 (NST3) (Arabidopsis thaliana) (UniProt Q9LPI7); test: EMSA; details: 10 mM Tris pH 7.5, 50 mM KCl, 1 mM DTT, 2.5% glycerol, 5 mM MgCl2, 0.1% IGEPAL CA-630, 0.05 ug/ul calf thymus DNA, 150 ng protein, 30 min room temperature
T2 sequence: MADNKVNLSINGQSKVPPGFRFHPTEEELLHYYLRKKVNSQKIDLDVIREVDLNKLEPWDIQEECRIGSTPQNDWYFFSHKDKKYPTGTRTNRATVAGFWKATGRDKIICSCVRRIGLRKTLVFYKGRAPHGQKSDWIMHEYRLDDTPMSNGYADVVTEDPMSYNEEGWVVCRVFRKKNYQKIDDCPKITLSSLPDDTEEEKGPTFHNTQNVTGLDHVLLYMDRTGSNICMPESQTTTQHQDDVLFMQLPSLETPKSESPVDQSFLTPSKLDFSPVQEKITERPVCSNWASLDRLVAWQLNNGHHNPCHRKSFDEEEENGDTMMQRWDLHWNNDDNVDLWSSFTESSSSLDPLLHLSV

Sequence	binding [1]	binding [2]
CCAGATTTGGTAAAGTTTATAAGATACAAAATATTAAGTAAGACTAAAGTAGAAATACATAATAACTTGAAAGCTACTCTAAGTTATACAAATTCTAAAGAACTCAAAAGAATAAC (double strand) [CESA4Bay-C]	binds	binds
GAAAGCTACTCTAAGTTATACAAATTCTAAAGAACTCAAAAGAATAACAAACAGTAGAAGTTGGAAGCTCAAGCAATTAAATTA (double strand) [CESA4Bay-D]	no binding	no binding
GAAAGCTACTCTAAGTTATACAAATTCTAAAGAACTCAAAAGAATAACAAACAGTAGAAGTTGGAAGCTCAAGCAATTAAATTA (double strand) [CESA4Sha-D]	no binding	no binding
GTTGGAAGCTCAAGCAATTAAATTATATAAAAACACTAACTACACTGAGCTGTCTCCTTCTTCCACCAAATCTTGTTGCTGTCTCTTGAAGCTTTCTTATGACAC (double strand) [CESA4Bay-E]	binds	binds
GTTGGAAGCTCAAGCAATTAAATTATATAAAAACACTAACTACACTGAGCTGTCTCCTTCTTCCACCAAATCTTGTTGCTGTCTCTTGAAGCTTTCTTATGACAC (double strand) [CESA4Sha-E]	binds	binds
